Measurements: patent US20200010841

Biological target: T1, HFR1^n-131aa-TBPm3 conjugated protein (UniProt Q9FE22)
T1 sequence: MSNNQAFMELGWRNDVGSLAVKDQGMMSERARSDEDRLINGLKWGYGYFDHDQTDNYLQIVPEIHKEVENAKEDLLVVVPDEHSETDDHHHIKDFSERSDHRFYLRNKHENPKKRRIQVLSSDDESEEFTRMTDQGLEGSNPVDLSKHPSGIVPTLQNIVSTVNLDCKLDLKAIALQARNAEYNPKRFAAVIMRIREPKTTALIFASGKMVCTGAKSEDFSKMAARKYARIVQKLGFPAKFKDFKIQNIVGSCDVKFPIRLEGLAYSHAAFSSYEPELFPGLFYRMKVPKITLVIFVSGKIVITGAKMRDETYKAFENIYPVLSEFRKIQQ

COP1^L105A (Constitutive photomorphogenic1 with amino acid mutation Leu to Ala)
Histochemical GUS staining of post-meiotic anther tapetum, ES transgenic versus F1 [ES x RS]: no staining was appear in the F1 tapetum of the same anther stage | Relative expression of BECLIN1 transcript (qRT-PCR) in anther developmental stages of F1 [MS x RS]: When expression of BECLIN1 was checked in different anther developmental stages, it was found that their expression was abolished
